Measured values as given in patent US20040105855A1 (Bristol-Myers Squibb, published 2004).

Experiments:
[1] = biological target: T1, hu4-1BBIg fusion protein (extracellular domain of H4-1BB fused to the constant domains of a human IgG1 … (human, UniProt Q07011 24-186; P01857 99-330 = IgG part); assay: SPR BIAcore 3000, antibody 10-100 nM over low-density immobilized H4-1BB (557 RU), global fit, Bivalent Analyte Model (Ka1)
T1 construct: extracellular domain;domain: constant domains of a human IgG1 antibody; also called immobilized H4-1BB; Human 4-1BB receptor; not shown: thrombin cleavage site between the 4-1BB and Ig portions
T1 sequence (Q07011 other isoform, or with tags, fused parts or gaps): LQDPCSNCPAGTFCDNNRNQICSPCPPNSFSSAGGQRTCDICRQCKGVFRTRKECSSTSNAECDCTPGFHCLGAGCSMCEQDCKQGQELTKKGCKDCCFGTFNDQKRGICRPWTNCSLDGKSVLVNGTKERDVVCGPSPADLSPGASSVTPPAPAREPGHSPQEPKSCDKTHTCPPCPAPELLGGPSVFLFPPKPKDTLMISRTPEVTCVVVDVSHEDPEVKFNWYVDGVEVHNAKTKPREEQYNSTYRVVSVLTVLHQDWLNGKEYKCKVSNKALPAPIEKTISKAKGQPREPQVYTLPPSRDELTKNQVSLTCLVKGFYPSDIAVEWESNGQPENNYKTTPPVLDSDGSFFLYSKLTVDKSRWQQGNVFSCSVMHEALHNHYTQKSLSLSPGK
Method: (§1) These studies were carried out on a BIAcore 3000 instrument (BIAcore Inc., Piscataway, N.J.). Dilutions of the antibodies were injected under identical conditions over sensorchip surfaces of immobilized H4-1BB.
(§2) Human 4-1BB receptor was immobilized covalently to a low density on a carboxy-methylated dextran surface of a BIAcore sensorchip (BIAcore Inc., Piscataway, N.J.). Through primary amino groups the fusion protein, injected at 2 μg/mL in 10 mM acetate buffer, pH 5.0, bind to an EDC/NHS-activated surface. […] After regenerating with 10 mM glycine, pH 2.0 the surface was ready for binding studies. Antibodies 39E3 and hu39E3.G4 were diluted to concentrations between 10 nM and 100 nM using HBS-EP buffer. All mAb dilutions were injected over two flow cells (FC) at a flow rate of 25 μl/minute. FC1 served as a negative control, FC2 had low density of human 4-1BB (557 RU). Bound anti-human 4-1BB mAbs were removed by regeneration with 10 mM Glycine pH 1.75.
(§3) Kinetic parameters were calculated with BIAevaluation program (version 3.1) (BIAcore Inc., Piscataway, N.J.). A global curve fit analysis was performed using a Bivalent Analyte Model (BIAcore Inc. Piscataway, N.J.). […] The binding affinities for the parental mAb, 39E3, and the humanized anti-H4-1BB mAb are shown below in Table 3.

[2] = biological target: T1, hu4-1BBIg fusion protein (extracellular …); assay: SPR BIAcore 3000, antibody 10-100 nM over low-density immobilized H4-1BB (557 RU), global fit, Bivalent Analyte Model (Kd1)
Method: as §1, §2, §3

[3] = biological target: T1, hu4-1BBIg fusion protein (extracellular …); assay: SPR BIAcore 3000, antibody 10-100 nM over low-density immobilized H4-1BB (557 RU), global fit, Bivalent Analyte Model (KD1)
Method: as §1, §2, §3

[4] = biological target: T1, hu4-1BBIg fusion protein (extracellular …); assay: SPR BIAcore 3000, antibody 10-100 nM over low-density immobilized H4-1BB (557 RU), global fit, Bivalent Analyte Model (KA1)
Method: as §1, §2, §3

kon [1] [M⁻¹ s⁻¹]	koff [2] [s⁻¹]	Kd [3] [nM]	Ka [4] [M⁻¹]	Binder
4740	2.53e-05	5.3	1.87e+08	hu39E3.G4 (humanized 39E3, IgG4) (antibody, V domains shown, Humanized IgG4 with a hinge mutation (after Angal et al.), made in CHO DG-44; also called humanized 39E3.G4 antibody; humanized anti-H4-1BB mAb) VH: EVQLVESGGGLVQPGGSLRLSCAASGFTFSDYWMSWVRQAPGKGLEWVADIKNDGSYTNYAPSLTNRFTISRDNAKNSLYLQMNSLRAEDTAVYYCARELTGTWGQGTMVTVSS VL: DIVMTQSPDSLAVSLGERATINCKSSQSLLSSGNQKNYLAWYQQKPGQPPKLLIYYASTRQSGVPDRFSGSGSGTDFTLTISSLQAEDVAVYYCLQYDRYPFTFGQGTKLEIKR
7070	4.77e-05	6.7	1.48e+08	mAb 39E3 (parental rat anti-human 4-1BB monoclonal antibody) (antibody, V domains shown, constant regions are not; also called parental antibody; parental mAb) VH: EVQLVESGGGLVKPGASLKLSCVASGFTFSDYWMSWVRQTPGKTMEWIGDIKNDGSYTNYAPSLTNRFTISRDNARSTLYLQMNNVRSEDTATYYCTRELTGT VL: DIIMTQSPFSLAVSEGEMVTMNCKSSQSLLSSGNQKNYLAWYQQKPGQPPELLIYYASTRQSGVPDRFIGSGSGTDFLTLTISDVQAEDLADYYCLQYDRYPFT
